Target: RyR1 with a His10 tag inserted at position 500 (His^500-RyR1) (rabbit) (UniProt P11716)
Experiment: FRET or BRET

Chain of UniProt P11716 (P11716 whole entry): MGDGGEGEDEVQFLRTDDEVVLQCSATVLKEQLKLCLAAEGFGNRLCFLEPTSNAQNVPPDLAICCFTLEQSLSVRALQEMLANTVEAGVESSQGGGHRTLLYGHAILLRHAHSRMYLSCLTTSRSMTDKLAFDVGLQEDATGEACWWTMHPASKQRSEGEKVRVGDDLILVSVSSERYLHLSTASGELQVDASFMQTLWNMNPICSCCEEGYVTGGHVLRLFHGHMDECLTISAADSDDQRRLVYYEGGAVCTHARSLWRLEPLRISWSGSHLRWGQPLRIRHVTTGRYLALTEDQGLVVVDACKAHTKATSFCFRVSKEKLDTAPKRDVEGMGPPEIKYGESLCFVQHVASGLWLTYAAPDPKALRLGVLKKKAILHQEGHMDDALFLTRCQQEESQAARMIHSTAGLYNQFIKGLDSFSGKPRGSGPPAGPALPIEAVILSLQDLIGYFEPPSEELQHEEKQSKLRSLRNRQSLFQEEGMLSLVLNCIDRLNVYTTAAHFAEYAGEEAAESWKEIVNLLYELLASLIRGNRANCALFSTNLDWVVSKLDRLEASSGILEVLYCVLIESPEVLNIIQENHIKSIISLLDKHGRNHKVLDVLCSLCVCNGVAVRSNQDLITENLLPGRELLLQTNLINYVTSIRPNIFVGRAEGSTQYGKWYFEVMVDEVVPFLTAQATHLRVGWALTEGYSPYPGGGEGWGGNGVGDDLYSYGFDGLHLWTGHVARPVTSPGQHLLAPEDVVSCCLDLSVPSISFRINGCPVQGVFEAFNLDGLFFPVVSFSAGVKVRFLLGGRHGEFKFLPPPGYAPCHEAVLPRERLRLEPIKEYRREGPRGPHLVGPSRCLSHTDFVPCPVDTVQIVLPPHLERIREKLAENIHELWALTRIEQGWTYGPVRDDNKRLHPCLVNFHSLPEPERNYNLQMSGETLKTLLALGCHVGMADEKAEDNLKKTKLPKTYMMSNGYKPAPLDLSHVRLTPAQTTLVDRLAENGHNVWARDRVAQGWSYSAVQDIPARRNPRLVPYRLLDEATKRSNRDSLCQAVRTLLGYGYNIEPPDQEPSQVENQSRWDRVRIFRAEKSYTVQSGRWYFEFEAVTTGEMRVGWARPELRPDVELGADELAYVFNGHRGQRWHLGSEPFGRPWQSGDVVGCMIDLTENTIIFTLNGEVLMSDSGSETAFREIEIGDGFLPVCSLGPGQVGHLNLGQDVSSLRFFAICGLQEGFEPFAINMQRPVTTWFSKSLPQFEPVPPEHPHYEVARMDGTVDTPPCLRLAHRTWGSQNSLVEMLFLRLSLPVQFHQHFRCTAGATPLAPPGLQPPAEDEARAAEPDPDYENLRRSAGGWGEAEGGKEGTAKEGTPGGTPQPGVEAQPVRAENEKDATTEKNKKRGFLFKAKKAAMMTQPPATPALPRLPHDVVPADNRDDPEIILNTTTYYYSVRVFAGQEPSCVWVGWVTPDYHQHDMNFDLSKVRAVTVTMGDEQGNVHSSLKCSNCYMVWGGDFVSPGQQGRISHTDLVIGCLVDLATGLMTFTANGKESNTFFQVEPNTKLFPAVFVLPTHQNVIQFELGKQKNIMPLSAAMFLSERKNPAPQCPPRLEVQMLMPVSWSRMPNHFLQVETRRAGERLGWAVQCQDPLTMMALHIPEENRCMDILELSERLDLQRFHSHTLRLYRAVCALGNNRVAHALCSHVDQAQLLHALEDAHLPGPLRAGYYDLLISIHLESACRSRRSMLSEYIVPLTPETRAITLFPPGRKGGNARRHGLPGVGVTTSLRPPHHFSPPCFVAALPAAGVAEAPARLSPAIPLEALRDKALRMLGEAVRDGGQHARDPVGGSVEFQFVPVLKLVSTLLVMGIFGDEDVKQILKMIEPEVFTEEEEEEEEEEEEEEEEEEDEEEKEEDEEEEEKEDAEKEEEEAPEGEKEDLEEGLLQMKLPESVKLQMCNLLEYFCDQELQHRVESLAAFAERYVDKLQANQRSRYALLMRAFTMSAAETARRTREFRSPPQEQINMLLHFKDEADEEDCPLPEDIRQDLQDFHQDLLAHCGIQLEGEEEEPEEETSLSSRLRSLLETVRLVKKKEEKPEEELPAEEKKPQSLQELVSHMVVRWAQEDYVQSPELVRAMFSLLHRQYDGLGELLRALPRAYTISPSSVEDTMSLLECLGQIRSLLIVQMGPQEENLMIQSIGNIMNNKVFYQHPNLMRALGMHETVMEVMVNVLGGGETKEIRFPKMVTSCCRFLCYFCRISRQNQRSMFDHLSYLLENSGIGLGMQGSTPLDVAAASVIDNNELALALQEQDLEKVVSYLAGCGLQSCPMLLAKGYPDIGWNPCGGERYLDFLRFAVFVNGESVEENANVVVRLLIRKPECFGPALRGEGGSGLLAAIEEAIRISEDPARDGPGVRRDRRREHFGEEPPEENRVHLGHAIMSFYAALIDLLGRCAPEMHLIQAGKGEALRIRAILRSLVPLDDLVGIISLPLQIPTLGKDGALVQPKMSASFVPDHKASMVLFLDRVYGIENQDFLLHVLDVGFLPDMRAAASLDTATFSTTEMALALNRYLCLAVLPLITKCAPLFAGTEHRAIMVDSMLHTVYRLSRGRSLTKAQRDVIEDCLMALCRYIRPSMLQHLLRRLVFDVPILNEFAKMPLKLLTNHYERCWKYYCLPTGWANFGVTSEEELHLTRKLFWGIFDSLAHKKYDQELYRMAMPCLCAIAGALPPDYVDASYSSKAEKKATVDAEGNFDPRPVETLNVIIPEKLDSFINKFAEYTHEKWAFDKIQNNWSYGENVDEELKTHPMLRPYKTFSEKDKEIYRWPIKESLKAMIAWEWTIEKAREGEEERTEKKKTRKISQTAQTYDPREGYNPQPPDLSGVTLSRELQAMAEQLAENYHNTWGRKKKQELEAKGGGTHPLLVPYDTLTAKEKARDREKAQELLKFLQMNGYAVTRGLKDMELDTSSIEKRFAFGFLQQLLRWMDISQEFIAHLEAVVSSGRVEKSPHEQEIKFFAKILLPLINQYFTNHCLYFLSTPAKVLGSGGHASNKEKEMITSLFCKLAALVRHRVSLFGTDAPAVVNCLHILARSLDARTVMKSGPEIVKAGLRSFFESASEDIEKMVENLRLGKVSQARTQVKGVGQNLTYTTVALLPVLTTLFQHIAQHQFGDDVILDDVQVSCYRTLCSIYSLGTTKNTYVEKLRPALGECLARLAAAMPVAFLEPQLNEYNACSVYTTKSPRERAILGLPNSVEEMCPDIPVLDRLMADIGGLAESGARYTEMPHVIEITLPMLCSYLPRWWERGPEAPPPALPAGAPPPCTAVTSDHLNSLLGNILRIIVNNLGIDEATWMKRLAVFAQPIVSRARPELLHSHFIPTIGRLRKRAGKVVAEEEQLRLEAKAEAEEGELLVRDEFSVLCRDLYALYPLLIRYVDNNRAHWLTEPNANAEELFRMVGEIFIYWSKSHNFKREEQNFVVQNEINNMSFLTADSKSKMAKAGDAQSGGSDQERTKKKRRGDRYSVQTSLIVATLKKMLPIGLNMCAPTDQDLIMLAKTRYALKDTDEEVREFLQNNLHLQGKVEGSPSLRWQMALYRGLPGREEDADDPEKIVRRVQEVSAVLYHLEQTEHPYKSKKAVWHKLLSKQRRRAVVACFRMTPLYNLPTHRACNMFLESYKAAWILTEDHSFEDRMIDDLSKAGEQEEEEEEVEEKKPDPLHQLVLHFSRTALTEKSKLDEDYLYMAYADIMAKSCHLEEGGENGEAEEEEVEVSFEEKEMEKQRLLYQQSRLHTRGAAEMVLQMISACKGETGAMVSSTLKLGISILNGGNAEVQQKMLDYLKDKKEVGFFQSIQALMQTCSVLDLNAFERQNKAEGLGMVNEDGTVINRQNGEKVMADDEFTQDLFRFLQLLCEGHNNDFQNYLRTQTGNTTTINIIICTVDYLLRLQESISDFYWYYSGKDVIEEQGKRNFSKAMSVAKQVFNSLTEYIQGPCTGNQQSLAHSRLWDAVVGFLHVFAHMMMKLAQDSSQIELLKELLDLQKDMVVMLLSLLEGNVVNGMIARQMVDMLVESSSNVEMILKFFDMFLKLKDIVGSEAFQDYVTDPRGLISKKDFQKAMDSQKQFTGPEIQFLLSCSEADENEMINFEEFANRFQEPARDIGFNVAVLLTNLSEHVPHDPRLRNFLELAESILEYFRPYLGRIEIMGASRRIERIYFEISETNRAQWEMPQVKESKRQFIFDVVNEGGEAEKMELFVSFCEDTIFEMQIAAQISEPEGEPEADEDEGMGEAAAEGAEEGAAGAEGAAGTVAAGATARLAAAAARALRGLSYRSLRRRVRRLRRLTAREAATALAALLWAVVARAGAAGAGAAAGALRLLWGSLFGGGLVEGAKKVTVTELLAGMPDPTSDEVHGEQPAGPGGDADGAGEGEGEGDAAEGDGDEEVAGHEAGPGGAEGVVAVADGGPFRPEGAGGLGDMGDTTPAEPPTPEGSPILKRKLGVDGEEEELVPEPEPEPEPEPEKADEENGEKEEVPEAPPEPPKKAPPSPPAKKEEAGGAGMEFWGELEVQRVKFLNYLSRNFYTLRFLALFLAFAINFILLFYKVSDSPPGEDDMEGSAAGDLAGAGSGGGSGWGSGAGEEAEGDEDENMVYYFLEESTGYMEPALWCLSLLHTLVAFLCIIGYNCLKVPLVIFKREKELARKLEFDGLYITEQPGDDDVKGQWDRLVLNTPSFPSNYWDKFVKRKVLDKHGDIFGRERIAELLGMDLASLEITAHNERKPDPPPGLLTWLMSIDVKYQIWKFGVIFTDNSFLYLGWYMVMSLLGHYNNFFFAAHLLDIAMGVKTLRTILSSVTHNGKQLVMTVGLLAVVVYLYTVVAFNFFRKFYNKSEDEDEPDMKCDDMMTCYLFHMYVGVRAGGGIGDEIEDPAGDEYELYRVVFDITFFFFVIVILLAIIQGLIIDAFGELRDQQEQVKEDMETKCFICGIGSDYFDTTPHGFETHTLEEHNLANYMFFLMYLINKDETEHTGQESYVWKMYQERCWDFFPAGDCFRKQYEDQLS

With “FKBP12.6 with AF488 conjugated to amino acid residue 14 (D14-FKBP) (from UniProt P68106 1-108) (natural protein)” the FRET efficiency (AF488 on FKBP to Cy3NTA on the His10 tag) was 0.18.
